Positions count from the first letter of the chain named. Names may count otherwise.
Experiments:
[1] = biological target: T1, M4 muscarinic receptor (Homo sapiens, UniProt P08173, L71A); assay: Thermostability of M4 muscarinic receptor bound to antagonist NMS; format: physicochemical; conditions: antagonist NMS bound, versus parent M4
T1 construct: made in house; host or cells: HEK293T cells, transient
T1 sequence (P08173 1-479 L71A): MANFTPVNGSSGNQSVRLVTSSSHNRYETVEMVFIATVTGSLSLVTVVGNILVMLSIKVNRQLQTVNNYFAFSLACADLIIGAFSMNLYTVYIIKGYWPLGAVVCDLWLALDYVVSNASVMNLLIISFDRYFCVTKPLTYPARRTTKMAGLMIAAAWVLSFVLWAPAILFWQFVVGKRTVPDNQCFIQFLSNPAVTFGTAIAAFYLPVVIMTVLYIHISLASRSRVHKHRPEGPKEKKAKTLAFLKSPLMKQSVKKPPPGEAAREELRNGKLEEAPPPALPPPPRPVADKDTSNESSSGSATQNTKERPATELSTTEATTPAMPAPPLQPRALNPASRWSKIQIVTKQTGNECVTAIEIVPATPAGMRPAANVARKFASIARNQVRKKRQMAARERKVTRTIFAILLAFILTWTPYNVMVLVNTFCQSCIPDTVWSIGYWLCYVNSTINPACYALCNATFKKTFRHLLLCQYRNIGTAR
Protocol: (§1) In order to stabilise the M4 muscarinic receptors in antagonist conformation, a systematic alanine-scan was performed to identify mutations that stabilise receptors bound to the muscarinic antagonist, NMS. […] However, L71A (three residues N-terminal of the L2.46) was identified as a stabilising mutation. This mutation increases the Tm of this receptor by about 2° C. (FIG. 8a).
(§2) A2AR-(2-316) expression was carried out by using the pRG/III-hs-MBP E. coli expression vector and DH5α cells. Cells were grown at 37° C. in 2 L flasks containing 500 mL of 2×TY medium supplemented with Ampicillin (100 μg/mL) and glucose (0.2% w/v). At OD600≈0.7, IPTG and theophylline were added at final concentrations respectively of 0.5 mM and 100 μM, and the temperature was reduced to 20° C. After 22 to 24 hours, cells were harvested in aliquots of 14 mL, centrifuged for 30 min and stored at −20° C. Both 5HT2C and M4 receptors were transiently expressed in HEK293T cells using GeneJuice transfection reagent used according to the manufacturers guidelines.
(§3) Transiently transfected mammalian cells expressing M4 were harvested about 40 hours post transfection and the receptors were solubilised in 50 mM Tris pH 7.5/250 mM NaCl/1% DDM/EDTA free protease inhibitor mix for 1 hour rotating at 4° C. The solubilised lysate was then cleared by centrifugation at 13000 rpm for 15 minutes at 4° C. The solubilised receptors were then purified on Ni-NTA beads and eluted with 100 mM histidine. The eluted receptor was used in radioligand binding assay. Thermostability of M4 was measured using 25 μL of purified receptor mixed with 95 μL of 12 nM [^3H]-NMS (final concentration of 10 nM). The sample was incubated for 60 min at 4° C., then 30 min at the specified temperature and then 30 min at 4° C. Receptor bound and free radioligand were separated using a 96-well plate gel filtration assay.

[2] = test system: M4 muscarinic receptor; assay: as above; format: physicochemical, human; conditions: bound to antagonist NMS
Protocol: as §1, §2, §3

[3] = biological target: T2, 5HT2C receptor (Homo sapiens, UniProt P28335, L95A); assay: Thermostability of 5HT2C receptor bound to antagonist mesulergine; format: physicochemical; conditions: antagonist bound 5HT2C, data not shown
T2 construct: made in house
T2 sequence (P28335 33-458 L95A): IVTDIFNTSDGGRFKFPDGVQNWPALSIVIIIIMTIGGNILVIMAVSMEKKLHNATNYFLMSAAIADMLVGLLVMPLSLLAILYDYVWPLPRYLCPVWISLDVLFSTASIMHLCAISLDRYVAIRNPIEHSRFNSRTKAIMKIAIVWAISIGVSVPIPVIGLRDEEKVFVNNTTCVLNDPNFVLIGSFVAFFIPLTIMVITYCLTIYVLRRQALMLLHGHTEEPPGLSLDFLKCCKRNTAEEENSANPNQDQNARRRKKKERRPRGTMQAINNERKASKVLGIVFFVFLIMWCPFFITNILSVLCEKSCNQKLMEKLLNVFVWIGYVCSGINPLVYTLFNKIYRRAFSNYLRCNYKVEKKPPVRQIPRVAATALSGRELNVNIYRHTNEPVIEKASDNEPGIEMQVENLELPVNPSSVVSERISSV
Protocol: as §2
(§4) 5HT2C receptor was solubilised from transiently transfected mammalian cells in 50 mM Hepes pH7.4, 100 mM KCl, 0.5% DDM (0.1% CHS/0.6% CHAPS was added to cells for SCH23390 agonist assay). Tm analysis was performed directly on the soluble lysate. The Tm was determined by incubating 108 μl of the lysate with [N^6-methyl-^3H]Mesulergine radioligand at a final concentration of 17 nM or 9 nM [^3H]SCH23390 for one hour at 4° C. The six ligand incubations are then incubated at six different temperatures from 25° C. to 55° C., for thirty minutes. Receptor bound and free radioligand were separated using a 96-well plate gel filtration assay.

[4] = test system: 5HT2C receptor; assay: Thermostability of 5HT2C receptor bound to agonist SCH23390; format: physicochemical, human
Protocol: An alanine scan has been carried out on the 5HT2C receptor in the presence of the agonist SCH23390 in order to stabilise the agonist conformation. Similar to A2A, it appears that mutating L2.46 (L95 in 5HT2C) to alanine confers significant stability on this receptor increasing the Tm of the receptor by 5.4° C. (FIG. 7). It is notable that in addition to L95, mutating the nearby M93 (two residues away from L2.46) to alanine also confers stability to the agonist bound receptor, resulting in an increase of 2.9° C.
as §2, §4
5HT2C receptor was solubilised from transiently transfected mammalian cells about 40 hours post transfection, in 50 mM Hepes pH7.4/100 mM KCl/0.5% DDM/(0.1% CHS/0.6% CHAPS was added to cells for SCH23390 agonist assay) and protease inhibitor. Cell lysates were left at 4° C. on a rotator and then cleared by centrifugation at 13,200 rpm for 20 minutes at 4° C. Thermostability analysis was performed directly on the soluble lysate. The Tm was determined by incubating 108 μl of the lysate with [N^6-methyl-^3H]Mesulergine radioligand at a final concentration of 17 nM or 9 nM [^3H]SCH23390 for one hour at 4° C. The six ligand incubations are then incubated at six different temperatures from 25° C. to 55° C., for thirty minutes. Receptor bound and free radioligand were separated using G25 Sephadex spin columns.

[5] = test system: 5HT2C receptor; assay: Thermostability of 5HT2C receptor bound to antagonist mesulergine; format: physicochemical, human; conditions: bound to antagonist (mesulergine)
Protocol: as §2, §4

[6] = biological target: T3, 5HT2C receptor (Homo sapiens, UniProt P28335, S94A); assay: as above; format: physicochemical; conditions: antagonist bound, versus parent 5HT2C
T3 construct: made in house
T3 sequence (P28335 33-458 S94A): T2 sequence (P28335 33-458 L95A) with S62A, A63L
Protocol: as §2, §4

[7] = biological target: neurotensin receptor NTS1 (Rattus norvegicus, UniProt P20789, Y369A); assay: Two point thermostability assay, neurotensin agonist binding to NTS1 alanine scan mutants; format: physicochemical
Source text: An alanine scan has been carried out on the rat neurotensin receptor NTS1 in the presence of the agonist neurotensin in order to stabilise the agonist conformation.

[8] = biological target: T4, A2A receptor (Homo sapiens, UniProt P29274, N284A); assay: Two point thermostability measurement, NECA binding to A2A alanine scan mutants in DDM; format: physicochemical; conditions: 4° C. versus destabilising temperature such as 30° C.
T4 construct: A2AR-(2-316) expression was carried out by using the pRG/III-hs-MBP E. coli expression vector; MBP (named only in the vector name); made in house
Protocol: In the A2A agonist-bound study the effect of mutations from the alanine scan were determined initially by two point thermostability measurements. In these experiments, the wild type receptors and receptors containing single mutants were solubilised in the detergent DDM and the amount of NECA binding retained at 4° C. and at a destabilising temperature such as 30° C. was determined. A>10% increase in agonist binding to the mutant receptor compared to the wild type receptor at the destabilising temperature is considered to be significant and is indicative of an increase in thermostability.

B1: L71A: M4 muscarinic receptor mutant L71A, three residues N-terminal of the L2.46 (protein, UniProt P08173 1-479, looked up, variant L71A)
Muscarinic acetylcholine …: T1 sequence (P08173 1-479 L71A)
[1]
  increase of Tm: about 2 °C
[2]
  Tm: 36.0 °C

B2: L95A: 5HT2C receptor mutant, L2.46 (L95 in 5HT2C) to alanine (protein, UniProt P28335 33-458, looked up, variant L95A)
5-hydroxytryptamine receptor …: T2 sequence (P28335 33-458 L95A)
[3]
  effect on thermal stability: did not confer any stability
[4]; agonist SCH23390 bound, versus parent 5HT2C
  increase of Tm: 5.4 °C
[4]; bound to agonist SCH23390
  Tm: 48.8 °C

B3: S94A: 5HT2C receptor mutant, S94 to alanine (protein, UniProt P28335 33-458, looked up, variant S94A)
5-hydroxytryptamine receptor …: T2 sequence (P28335 33-458 L95A) with S62A, A63L
[5]
  Tm: 48.9 °C
[6]
  increase of Tm: 11.76 °C

B4: Y369: rat neurotensin receptor NTS1 mutant, residue 7.53 (Y369) to alanine (protein, listed as Rattus norvegicus)
chain: MHLNSSVPQGTPGEPDAQPFSGPQSEMEATFLALSLSNGSGNTSESDTAGPNSDLDVNTDIYSKVLVTAIYLALFVVGTVGNSVTAFTLARKKSLQSLQSTVHYHLGSLALSDLLILLLAMPVELYNFIWVHHPWAFGDAGCRGYYFLRDACTYATALNVASLSVERYLAICHPFKAKTLMSRSRTKKFISAIWLASALLAIPMLFTMGLQNRSGDGTHPGGLVCTPIVDTATVKVVIQVNTFMSFLFPMLVISILNTVIANKLTVMVHQAAEQGRVCTVGTHNGLEHSTFNMTIEPGRVQALRHGVLVLRAVVIAFVVCWLPYHVRRLMFCYISDEQWTTFLFDFYHYFYMLTNALFYVSSAINPILANLVSANFRQVFLSTLACLCPGWRHRRKKRPTFSRKPNSMSSNHAFSTSATRETLY
[7]
  thermostability (agonist binding at the destabilising temperature compared to wild type): increased agonist binding compared to the wild type receptor

B5: N284: adenosine A2A receptor alanine scan mutant of Asparagine 284 (protein, listed as Homo sapiens)
chain: MPIMGSSVYITVELAIAVLAILGNVLVCWAVWLNSNLQNVTNYFVVSLAAADIAVGVLAIPFAITISTGFCAACHGCLFIACFVLVLTQSSIFSLLAIAIDRYIAIRIPLRYNGLVTGTRAKGIIAICWVLSFAIGLTPMLGWNNCGQPKEGKNHSQGCGEGQVACLFEDVVPMNYMVYFNFFACVLVPLLLMLGVYLRIFLAARRQLKQMESQPLPGERARSTLQKEVHAAKSLAIIVGLFALCWLPLHIINCFTFFCPDCSHAPLWLMYLAIVLSHTNSVVAPFIYAYRIREFRQTFRKIIRSHVLRQQEPFKAAGTSARVLAAHGSDGEQVSLRLNGHPPGVWANGSAPHPERRPNGYALGLVSGGSAQESQGNTGLPDVELLSHELKGVCPEPPGLDDPLAQDGAGVS
[8]
  thermostability (agonist binding at the destabilising temperature compared to wild type): increased thermostability

— patent publication US8703915B2, “Mutant proteins and methods for producing them” (Heptares Therapeutics Limited, priority 2009, dated 2014)
